These results are taken from patent US20030105278A1 (MERK, published 2003).

Where two headings read alike, the source gives them in different places. Bridges are numbered along the chain shown (N, C = ends). Where no end group is shown, it is not given here. [ ]: non-standard residue; d: D form. Ava = NCCCCC(=O)O

Test [1] deals with T1, human MCH receptor expressed from the open reading frame cDNA SEQ. ID. NO. 1 in 293-AEQ17 cells (human, UniProt Q99705 1-353). The test can be described thus: cell-based or functional assay.
The target of test [2] is T2, human MCH receptor (membranes from a stable CHO or HEK-293 cell line) (human, UniProt Q99705 1-353).
T2 construct: whole, on cells; also called cloned human MCH receptor (CHO clone)
The test can be described thus: SPA competition vs [125I]-human MCH (Phe13,Tyr19); human MCH receptor cell membranes.

In test [3] the target is T1, human MCH receptor expressed from the …. The test can be described thus: cell-based or functional assay. This is another data set of the same source.
Test [4] concerns the target T2, human MCH receptor (membranes from a …). Put plainly: competition vs [125I]-human MCH (Phe13,Tyr19); human MCH receptor cell membranes (Example 3).
Test [5] addresses T1, human MCH receptor expressed from the …. The test can be described thus: cell-based or functional assay. The source holds these as a separate data set.
The target in test [6] is T2, human MCH receptor (membranes from a …). The test can be described thus: competition vs [125I]-human MCH (Phe13,Tyr19); human MCH receptor cell membranes (Example 3). The source holds these as a separate data set.
The target of test [7] is T1, human MCH receptor expressed from the …. The test can be described thus: cell-based or functional assay. The source holds these as a separate data set.
The target of test [8] is T2, human MCH receptor (membranes from a …). Put plainly: competition vs [125I]-human MCH (Phe13,Tyr19); human MCH receptor cell membranes (Example 3). The source holds these as a separate data set.
The target in test [9] is T1, human MCH receptor expressed from the …. Put plainly: cell-based or functional assay. This is another data set of the same source.
Test [10] addresses T2, human MCH receptor (membranes from a …). The test can be described thus: competition vs [125I]-human MCH (Phe13,Tyr19); human MCH receptor cell membranes (Example 3). This is another data set of the same source.
For test [11], the target named is T1, human MCH receptor expressed from the …. Put plainly: cell-based or functional assay. This is another data set of the same source.
The target is the same in test [12]. The test can be described thus: cell-based or functional assay. This is another data set of the same source.

T2 sequence (Q99705 whole entry): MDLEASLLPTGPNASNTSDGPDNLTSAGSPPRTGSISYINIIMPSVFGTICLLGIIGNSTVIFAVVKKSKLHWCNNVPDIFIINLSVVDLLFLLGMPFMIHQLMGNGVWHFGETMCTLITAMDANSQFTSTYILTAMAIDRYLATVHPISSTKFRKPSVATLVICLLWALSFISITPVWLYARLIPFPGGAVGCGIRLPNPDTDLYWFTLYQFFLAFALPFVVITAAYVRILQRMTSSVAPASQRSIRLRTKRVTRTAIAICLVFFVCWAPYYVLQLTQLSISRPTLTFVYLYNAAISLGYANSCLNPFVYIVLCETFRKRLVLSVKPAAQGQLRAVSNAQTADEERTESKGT
T1 sequence (Q99705 whole entry): as above

Take DFAMLRCMLGRVFRPCWQY (disulfide 7-16 (inferred)): in test [1], the “% Activation at 10 µM” value amounted to 62.2%. For the same molecule, the IC50 (as a rule, the point on the concentration scale where inhibition reaches its midpoint) in test [2] came to 0.5 nM.

B1: MCH analog SEQ. ID. NO. 74 (D-Pro^10,Ava^14,15) (peptide)
peptide: RCMLXRVYXXC
modifications: not fully specified; D-Pro^10; Ava (5-aminopentanoic acid) in place of positions 14,15; N-terminal acetyl, C-terminal amide, Cys-Cys disulfide as in SEQ. ID. NO. 7
notes: ID; NO; 7 peptide; MCH position numbering
Turning to B1, the Activation % in test [3] came out at 3%. In test [4], this molecule displayed an IC50 of 700 nM.

B2: MCH analog SEQ. ID. NO. 77 (Nle^8) (peptide)
peptide: RCXLGRVYRPC
modifications: norleucine at position 8; N-terminal acetyl, C-terminal amide, Cys-Cys disulfide as in SEQ. ID. NO. 7
notes: as for B1
On to B2, for which the Activation % in [3] was 105%. In [4], this molecule came in with an IC50 of 0.5 nM.

B3: MCH analog SEQ. ID. NO. 71 (D-Arg^6,Ava^9,10) (peptide)
peptide: Ac-[dR]CM[Ava][Ava]RVYRPC-NH2
modifications: disulfide 2-11; not fully specified
notes: as for B1
In test [3], B3 yielded an Activation % of 72%. This molecule registered an IC50 in [4] of 3.7 nM.
As for Ac-CMLGRVYRPCWQV (disulfide 1-10 (inferred)) [MCH analog SEQ. ID. NO. 12: Ac-Cys-Met-Leu-Gly-Arg-Val-Tyr-Arg-Pro-Cys-Trp-Gln-Val], in test [1], the “% Activation at 10 µM” value amounted to 3% and the EC50 (commonly the concentration giving half of the maximal effect) was determined as 492 nM. In test [2], this molecule yielded an IC50 of 6.4 nM.

B4: truncated MCH analog SEQ. ID. NO. 8: Ac-Arg-Cys-Met-Leu-Gly-Arg-Val-Phe-Arg-Pro-Cys-Tyr-amide (peptide)
peptide: Ac-RCMLGRVFRPCY-NH2
modifications: disulfide 2-11
SMILES: CSCC[C@@H]1NC(=O)[C@@H](NC(=O)[C@H](CCCNC(=N)N)NC(C)=O)CSSC[C@@H](C(=O)N[C@@H](Cc2ccc(O)cc2)C(N)=O)NC(=O)[C@@H]2CCCN2C(=O)[C@H](CCCNC(=N)N)NC(=O)[C@H](Cc2ccccc2)NC(=O)[C@H](C(C)C)NC(=O)[C@H](CCCNC(=N)N)NC(=O)CNC(=O)[C@H](CC(C)C)NC1=O
Consider B4, for which, in test [1], the “% Activation at 10 µM” value amounted to 123% and a half-maximal response (EC50) required 36 nM. This molecule had an IC50 in [2] of 0.16 nM.

B5: MCH analog SEQ. ID. NO. 25 (N-Me-Nle^8) (peptide)
peptide: RCXLGRVYRPC
modifications: N-methyl-norleucine at position 8; N-terminal acetyl, C-terminal amide, Cys-Cys disulfide as in SEQ. ID. NO. 7
notes: as for B1
Regarding B5, in [5], the Activation % was found to be 110% and the “EC50” value was 20 nM. In test [6], this molecule registered an IC50 of 0.16 nM.

B6: MCH analog SEQ. ID. NO. 62 (position 13: Phe) (peptide)
peptide: Ac-RCMLGRVFRPC-NH2
modifications: disulfide 2-11
SMILES: CSCC[C@@H]1NC(=O)[C@@H](NC(=O)[C@H](CCCNC(=N)N)NC(C)=O)CSSC[C@@H](C(N)=O)NC(=O)[C@@H]2CCCN2C(=O)[C@H](CCCNC(=N)N)NC(=O)[C@H](Cc2ccccc2)NC(=O)[C@H](C(C)C)NC(=O)[C@H](CCCNC(=N)N)NC(=O)CNC(=O)[C@H](CC(C)C)NC1=O
notes: as for B1
Take B6: in [7], the Activation % is 96% and the response was half-maximal at 46 nM (EC50). The IC50 in test [8] came out at 1 nM.

B7: MCH analog SEQ. ID. NO. 64 (position 13: His) (peptide)
peptide: Ac-RCMLGRVHRPC-NH2
modifications: disulfide 2-11
SMILES: CSCC[C@@H]1NC(=O)[C@@H](NC(=O)[C@H](CCCNC(=N)N)NC(C)=O)CSSC[C@@H](C(N)=O)NC(=O)[C@@H]2CCCN2C(=O)[C@H](CCCNC(=N)N)NC(=O)[C@H](Cc2c[nH]cn2)NC(=O)[C@H](C(C)C)NC(=O)[C@H](CCCNC(=N)N)NC(=O)CNC(=O)[C@H](CC(C)C)NC1=O
notes: as for B1
B7: in [7], the Activation % came out at 66% and the “EC50” value amounted to 3400 nM. In [8], this molecule returned an IC50 of 13.1 nM.

B8: MCH analog SEQ. ID. NO. 63 (position 13: Trp) (peptide)
peptide: Ac-RCMLGRVWRPC-NH2
modifications: disulfide 2-11
SMILES: CSCC[C@@H]1NC(=O)[C@@H](NC(=O)[C@H](CCCNC(=N)N)NC(C)=O)CSSC[C@@H](C(N)=O)NC(=O)[C@@H]2CCCN2C(=O)[C@H](CCCNC(=N)N)NC(=O)[C@H](Cc2c[nH]c3ccccc23)NC(=O)[C@H](C(C)C)NC(=O)[C@H](CCCNC(=N)N)NC(=O)CNC(=O)[C@H](CC(C)C)NC1=O
notes: as for B1
In the case of B8, in test [7], the Activation % was determined as 83% and a half-maximal effect (EC50) was put at 890 nM. In test [8], this molecule registered a 50% inhibitory concentration (IC50) of 3.8 nM.

B9: MCH analog SEQ. ID. NO. 70 (Ava^9,10) (peptide)
peptide: Ac-RCM[Ava][Ava]RVYRPC-NH2
modifications: disulfide 2-11; not fully specified
notes: as for B1
The molecule B9 registered an Activation % in test [3] of 82%. In test [4], this molecule showed an IC50 of 3.7 nM.

B10: truncated MCH analog SEQ. ID. NO. 9: Ac-Cys-Met-Leu-Gly-Arg-Val-Tyr-Arg-Pro-Cys-amide (peptide)
peptide: Ac-CMLGRVYRPC-NH2
modifications: disulfide 1-10
SMILES: CSCC[C@@H]1NC(=O)[C@@H](NC(C)=O)CSSC[C@@H](C(N)=O)NC(=O)[C@@H]2CCCN2C(=O)[C@H](CCCNC(=N)N)NC(=O)[C@H](Cc2ccc(O)cc2)NC(=O)[C@H](C(C)C)NC(=O)[C@H](CCCNC(=N)N)NC(=O)CNC(=O)[C@H](CC(C)C)NC1=O
Consider B10, for which, in test [1], the “% Activation at 10 µM” value is 74% and the 50% effective concentration (EC50) is 300 nM. For the same molecule, the concentration for half-maximal inhibition (IC50) in test [2] amounted to 1.6 nM.

B11: MCH analog SEQ. ID. NO. 15 (D-Arg^6) (peptide)
peptide: XCMLGRVYRPC
modifications: D-Arg^6; N-terminal acetyl, C-terminal amide, Cys-Cys disulfide as in SEQ. ID. NO. 7
notes: as for B1
Consider B11, for which, in test [9], the Activation % was found to be 86% and the midpoint of the response, the EC50, lay at 45 nM. In addition, the IC50 in test [10] turned out to be 0.46 nM.

B12: MCH analog SEQ. ID. NO. 72 (Ava^14,15) (peptide)
peptide: Ac-RCMLGRVY[Ava][Ava]C-NH2
modifications: disulfide 2-11
notes: as for B1
For the molecule B12, in [3], the Activation % stood at 75% and the concentration giving a half-maximal response (EC50) came out at 406 nM. For the same molecule, in test [4], the IC50 came to 6.2 nM.
For DFDMLRCMLGRVYRPCWQV (disulfide 7-16) [mammalian MCH (SEQ. ID. NO. 11)], the “% Activation at 10 µM” value in test [1] is 100%. In addition, the Activation % in [9], in test [5], in [11], in test [12], in test [7] and in test [3] was 100% in each case.

B13: truncated MCH analog SEQ. ID. NO. 10: Asp-Phe-Asp-Met-Ieu-Arg-Cys-Met-Ieu-Gly-Arg-Val-Tyr-Arg-Pro-Cys-amide (peptide)
peptide: DFDMLRCMLGRVYRPC-NH2
modifications: disulfide 7-16; N-terminus assumed
SMILES: CSCC[C@@H]1NC(=O)[C@@H](NC(=O)[C@H](CCCNC(=N)N)NC(=O)[C@H](CC(C)C)NC(=O)[C@H](CCSC)NC(=O)[C@H](CC(=O)O)NC(=O)[C@H](Cc2ccccc2)NC(=O)[C@@H](N)CC(=O)O)CSSC[C@@H](C(N)=O)NC(=O)[C@@H]2CCCN2C(=O)[C@H](CCCNC(=N)N)NC(=O)[C@H](Cc2ccc(O)cc2)NC(=O)[C@H](C(C)C)NC(=O)[C@H](CCCNC(=N)N)NC(=O)CNC(=O)[C@H](CC(C)C)NC1=O
With B13, in [1], the “% Activation at 10 µM” value came to 99%. Moreover, the IC50 in test [2] is 0.3 nM.

B14: MCH analog SEQ. ID. NO. 27 (Sar^10) (peptide)
peptide: RCMLXRVYRPC
modifications: sarcosine at position 10; N-terminal acetyl, C-terminal amide, Cys-Cys disulfide as in SEQ. ID. NO. 7
notes: as for B1
On to B14, for which the Activation % in test [5] was found to be 95%. In addition, in test [6], the IC50 was determined as 2.3 nM.
